Results on 5 molecules are retold here after publication PMC10563445, “Extracellular microRNA 130b‐3p inhibits eCIRP‐induced inflammation” (EMBO Reports, 2019).

Series [1] has as its target T1, rmCIRP (recombinant murine cold-inducible RNA-binding protein) (mouse, UniProt P60824 1-172).
T1 sequence: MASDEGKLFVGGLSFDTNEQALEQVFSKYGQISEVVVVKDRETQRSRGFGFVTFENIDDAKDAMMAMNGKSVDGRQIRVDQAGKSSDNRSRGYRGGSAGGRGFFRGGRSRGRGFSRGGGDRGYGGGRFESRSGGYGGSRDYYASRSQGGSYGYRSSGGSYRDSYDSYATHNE
As to the kind of experiment: SPR; RNA immobilized on SA chip; text misprints 8.4 x 10^8 M; SPR (BIAcore T200), 1X HBS-EP running buffer; rmCIRP 7.8-500 nM over RNA; pH and temperature not stated. The following applies: single strand.

In series [2] the target is T2, human TLR4/MD2 complex (human, UniProt O00206 24-631; Q9Y6Y9 19-160).
T2 construct: Toll-like receptor 4 (TLR4), human, recombinant, in the bought TLR4/MD2 complex; Myeloid differentiation factor 2 (MD2), human, recombinant, in the bought TLR4/MD2 complex; also called TLR4 and myeloid differentiation factor 2 (MD2) complex; source: bought: R&D Systems
T2 sequence (O00206 24-631, chain 1 of 2): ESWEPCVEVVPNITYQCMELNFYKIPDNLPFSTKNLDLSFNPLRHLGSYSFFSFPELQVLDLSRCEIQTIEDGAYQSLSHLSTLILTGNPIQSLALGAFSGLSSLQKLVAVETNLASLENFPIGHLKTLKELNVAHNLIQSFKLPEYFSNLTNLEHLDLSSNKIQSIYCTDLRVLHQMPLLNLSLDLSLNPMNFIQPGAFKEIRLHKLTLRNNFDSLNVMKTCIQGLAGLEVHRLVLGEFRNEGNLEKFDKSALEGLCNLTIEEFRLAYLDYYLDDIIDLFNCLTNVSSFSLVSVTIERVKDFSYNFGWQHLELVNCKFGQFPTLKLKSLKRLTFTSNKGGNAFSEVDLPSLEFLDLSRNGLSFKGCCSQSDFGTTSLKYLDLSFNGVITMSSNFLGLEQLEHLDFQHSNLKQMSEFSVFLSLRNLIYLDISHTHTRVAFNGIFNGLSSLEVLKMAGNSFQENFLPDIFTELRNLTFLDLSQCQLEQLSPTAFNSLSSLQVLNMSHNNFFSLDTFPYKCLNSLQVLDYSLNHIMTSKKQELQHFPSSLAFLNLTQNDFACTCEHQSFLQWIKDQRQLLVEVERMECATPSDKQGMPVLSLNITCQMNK
T2 sequence (Q9Y6Y9 19-160, chain 2 of 2): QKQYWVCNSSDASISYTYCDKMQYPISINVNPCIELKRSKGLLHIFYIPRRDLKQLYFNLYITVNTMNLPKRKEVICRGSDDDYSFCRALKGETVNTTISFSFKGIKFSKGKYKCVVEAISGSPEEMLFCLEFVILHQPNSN
As to the kind of experiment: SPR; BIAcore T200; human TLR4/MD2 complex immobilised on a CM5 chip; rmCIRP (31.25-500 nM) injected alone as analyte; running buffer 1X HBS-EP; 1:1 binding model. The following applies: both partners purified.

For series [3], the target named is T2, human TLR4/MD2 complex. As to the kind of experiment: SPR; BIAcore T200; human TLR4/MD2 complex immobilised on a CM5 chip; rmCIRP (31.25-1,000 nM) incubated with a constant 50 nM miRNA 130b-3p mimic and injected as analyte; 1X HBS-EP; 1:1 binding model. The following applies: both partners purified.
For series [4], the target named is T2, human TLR4/MD2 complex. Nature of the series: SPR; BIAcore T200; human TLR4/MD2 complex immobilised on a CM5 chip; rmCIRP (31.25-1,000 nM) incubated with a constant 100 nM miRNA 130b-3p mimic and injected as analyte; 1X HBS-EP; 1:1 binding model. Particulars: both partners purified.
The target in series [5] is T1, rmCIRP (recombinant murine …). As to the kind of experiment: SPR; RNA immobilized on SA chip; SPR (BIAcore T200), 1X HBS-EP running buffer; rmCIRP 7.8-500 nM over RNA; pH and temperature not stated. The following applies: single strand.
The target in a further series is TLR4/MD2 complex (human, UniProt O00206;Q9Y6Y9 24-631;19-160). Nature of the series: SPR; RNA analyte 31.25-1000 nM, no rmCIRP; SPR (BIAcore T200), 1X HBS-EP running buffer; rmCIRP 7.8-500 nM over RNA; pH and temperature not stated. Particulars: protein: commercial.
Sequence of TLR4/MD2 complex (O00206 24-631, chain 1 of 2): as the sequence (O00206 24-631, chain 1 of 2) above
Sequence of TLR4/MD2 complex (Q9Y6Y9 19-160, chain 2 of 2): as the sequence (Q9Y6Y9 19-160, chain 2 of 2) above

B1: miRNA 27b mimic (27b-3p), biotinylated (ssRNA)
RNA: UUCACAGUGGCUAAGUUCUGC
Turning to B1, the Kd in series [1] stood at 83.5 ± 3.1 nM.

B2: recombinant murine cold-inducible RNA-binding protein (natural protein, mouse, UniProt P60824 1-172, looked up)
chain: T1 sequence
notes: also called rmCIRP; recombinant mouse (rm) CIRP
As to B2, the Kd in the series with human TLR4/MD2 complex [2] was 116.5 ± 0.8 nM. Besides, the “KD with 50 nM miRNA 130b-3p mimic” value with human TLR4/MD2 complex [3] worked out at 420 nM. Besides, the “KD with 100 nM miRNA 130b-3p mimic” value with human TLR4/MD2 complex [4] was found to be 40000 nM.

B3: miRNA 140 mimic (140-5p), biotinylated (ssRNA)
RNA: CAGUGGUUUUACCCUAUGGUAG
Regarding B3, the Kd in series [5] is 160 ± 1.9 nM.

B4: miRNA 130b-3p mimic (analyte) (ssRNA)
RNA: CAGUGCAAUGAUGAAAGGGCAU
Take B4: the binding result with TLR4/MD2 complex is “no binding”.

B5: miRNA 130b-3p mimic, biotinylated (ssRNA)
RNA: CAGUGCAAUGAUGAAAGGGCAU
Regarding B5, the Kd in series [5] was 50.1 ± 3 nM.
